Reference: US20180355043A1 (Janssen / Centocor, published 2018)

Legend:
[1] = target: T1, DR4G111: Human HLA-DQA1*01:02/DQB1*06:02 ECD with insulin peptide INS_1-15 (human); assay: MSD ECL; antigen coated; mAb 5 µg/ml
T1 construct: also called DQB6:02
Description: (§1) Select generated antibodies were characterized for their binding to soluble HLA-DR, HLA-DQ or HLA-DP antigens with various peptides attached to the N-terminus of the beta chains. […] The soluble antigens of DR, DP and DQ were coated on MSD standard plates (Meso Scale Discovery, Cat. No. L15XA-3) at 5 μg/ml at 4° C. overnight. […] Binding to DR antigens was tested with four antibody concentrations ranging from 0.04-5 μg/ml. Binding to DP and DQ antigens was tested with one concentration at 5 μg/ml. After three washes, SulfoTag anti-human/NHP Kappa secondary antibody (Meso Scale Discovery, Cat. No. D20TF-6) was added and incubated for 1 hour. After another three washes, the plates were read under MSD reader (Meso Scale Discovery), and electrochemiluminescence (ECL) was measured.

[2] = target: T2, DR4G113: Human HRA-DPA1*03/DPB1*04:01 ECD with NY-ESO peptide NY-ESO_157-169 (human); assay: MSD ECL; antigen coated; mAb 5 µg/ml
T2 construct: also called HLA-DP; DP4:01
Description: as §1
T2 MHC II alpha: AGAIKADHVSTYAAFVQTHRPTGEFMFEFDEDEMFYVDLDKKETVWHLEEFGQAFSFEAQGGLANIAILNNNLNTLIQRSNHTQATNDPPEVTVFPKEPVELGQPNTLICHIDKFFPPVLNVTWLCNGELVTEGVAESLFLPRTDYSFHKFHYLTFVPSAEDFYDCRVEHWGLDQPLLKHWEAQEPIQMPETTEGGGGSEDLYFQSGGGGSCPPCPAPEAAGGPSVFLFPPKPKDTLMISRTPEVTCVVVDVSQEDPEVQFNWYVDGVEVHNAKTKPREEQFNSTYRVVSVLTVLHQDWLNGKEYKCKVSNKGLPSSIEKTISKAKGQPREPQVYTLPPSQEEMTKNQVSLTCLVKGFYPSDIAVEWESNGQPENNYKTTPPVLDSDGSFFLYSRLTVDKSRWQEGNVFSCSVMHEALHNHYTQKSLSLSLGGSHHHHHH
T2 MHC II beta: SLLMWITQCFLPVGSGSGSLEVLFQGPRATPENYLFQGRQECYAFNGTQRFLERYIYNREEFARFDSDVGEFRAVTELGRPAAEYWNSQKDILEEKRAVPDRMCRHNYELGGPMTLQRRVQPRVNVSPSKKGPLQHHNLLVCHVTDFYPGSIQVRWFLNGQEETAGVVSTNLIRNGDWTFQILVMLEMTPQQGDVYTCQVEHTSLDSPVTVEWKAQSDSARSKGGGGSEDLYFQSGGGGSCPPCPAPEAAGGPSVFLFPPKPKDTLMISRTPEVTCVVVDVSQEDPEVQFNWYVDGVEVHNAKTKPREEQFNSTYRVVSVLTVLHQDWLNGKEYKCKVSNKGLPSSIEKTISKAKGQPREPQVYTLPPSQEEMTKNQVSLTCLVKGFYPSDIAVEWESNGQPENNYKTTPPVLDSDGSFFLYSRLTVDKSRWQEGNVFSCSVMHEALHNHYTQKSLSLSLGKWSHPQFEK

[3] = target: T3, DR4G107 (HLA DPB4:01, peptide CLIP) (human); assay: MSD ECL; antigen coated; protocol of Example 3;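 also: antibody binding to plate-coated soluble HLA class II antigens carrying peptides fused at the beta-chain N-terminus, detected with a SulfoTag anti-human Kappa secondary antibody for 1 hour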
T3 construct: extracellular domain

[4] = target: T4, DR4G145 (HLA DQB2:01, peptide CLIP) (human); assay: MSD ECL; antigen coated; protocol of Example 3;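 also: antibody binding to plate-coated soluble HLA class II antigens carrying peptides fused at the beta-chain N-terminus, detected with a SulfoTag anti-human Kappa secondary antibody for 1 hour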
T4 construct: extracellular domain

[5] = target: T5, DR4G108 (HLA DQB6:02, peptide CLIP) (human); assay: MSD ECL; antigen coated; protocol of Example 3;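 also: antibody binding to plate-coated soluble HLA class II antigens carrying peptides fused at the beta-chain N-terminus, detected with a SulfoTag anti-human Kappa secondary antibody for 1 hour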
T5 construct: extracellular domain

[6] = target: T6, DR4G112: Human HLA-DQA1*01:02/DQB1*06:02 ECD with PLP peptide PLP_178-186 (human); assay: MSD ECL; antigen coated; protocol of Example 3;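 as to ECL signal: antibody binding to plate-coated soluble HLA class II antigens carrying peptides fused at the beta-chain N-terminus, detected with a SulfoTag anti-human Kappa secondary antibody for 1 hour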
T6 construct: also called DQB6:02 PLP

[7] = target: T7, DR4G115 (HLA DPB4:01, peptide LCAP) (human); assay: MSD ECL; antigen coated; protocol of Example 3
T7 construct: extracellular domain

[8] = target: T8, DR4G146 (HLA DQB2:01, peptide CLIP) (human); assay: MSD ECL; antigen coated; protocol of Example 3
T8 construct: extracellular domain

[9] = target: T9, DR4G96: Human HLA-DRA1*01:02/DRB1*01:01 ECD with CLIP peptide (human); assay: MSD ECL; antigen coated; protocol of Example 3
T9 construct: also called DRB1*01:01 CLIP

[10] = target: DR4G98: Human HLA-DRA1*01:02/DRB1*04:02 ECD with collagen II peptide CII_1236-1249 (human); assay: MSD ECL; antigen coated; protocol of Example 3
[11] = target: DR4G102: Human HLA-DRA1*01:02/DRB1*01:01 ECD with collagen II peptide CII_257-273 (human); assay: MSD ECL; antigen coated; protocol of Example 3
[12] = target: DR4G101: Human HLA-DRA1*01:02/DRB1*04:02 ECD with collagen II peptide CII_257-273 (human); assay: MSD ECL; antigen coated; protocol of Example 3
[13] = target: T6, DR4G112: Human …; assay: MSD ECL; antigen coated
[14] = target: T10, DR4G92: Human HLA-DRA1*01:02/DRB1*04:01 ECD with collagen II peptide CII_257-273 (human); assay: MSD ECL; antigen coated; protocol of Example 3
T10 construct: also called HLA-DR4 with CII_257-273
Description: (§2) The soluble antigens of DR, DP and DQ were coated on MSD standard plates (Meso Scale Discovery, Cat. No. L15XA-3) at 5 μg/ml at 4° C. overnight. […] Binding to DR antigens was tested with four antibody concentrations ranging from 0.04-5 μg/ml. Binding to DP and DQ antigens was tested with one concentration at 5 μg/ml. After three washes, SulfoTag anti-human/NHP Kappa secondary antibody (Meso Scale Discovery, Cat. No. D20TF-6) was added and incubated for 1 hour. After another three washes, the plates were read under MSD reader (Meso Scale Discovery), and electrochemiluminescence (ECL) was measured.
(§3) Select antibodies were further characterized for their binding to soluble HLA-DR, HLA-DQ and HLA-DP antigens in complex with various peptides which were covalently attached to the N-terminus of the beta chains.

[15] = target: T11, DR4G110: Human HLA-DRA1*01:02/DRB1*04:01 ECD with aggrecan peptide N1 (human); assay: MSD ECL; antigen coated; protocol of Example 3
T11 construct: also called DRB1*04:01 Aggrecan
Description: as §2, §3

[16] = target: T12, DR4G143: Human HLA-DRA1*01:02/DRB1*04:01 ECD_VimentineL70A (human); assay: MSD ECL; antigen coated; protocol of Example 3
T12 construct: also called DRB1*04:01 VitL70A
Description: as §2, §3

[17] = target: T13, DR4G86: Human HLA-DRA1*01:02/DRB1*04:01 ECD with CLIP peptide (human); assay: MSD ECL; antigen coated; protocol of Example 3
T13 construct: also called DRB1*04:01 CLIP; HLA-DR4 ECD
Description: as §2, §3

[18] = target: DR4G90: Human HLA-DRA1*01:02/DRB1*04:01 ECD with collagen II peptide CII_1236-1249 (human); assay: MSD ECL; antigen coated; mAb 0.2 µg/ml
Description: as §1

[19] = target: T14, DR4G99: Human HLA-DRA1*01:02/DRB1*01:01 ECD with collagen peptide CII_1236-1249 (human); assay: MSD ECL; antigen coated; mAb 0.2 µg/ml
T14 construct: also called DRG99
Description: as §1

B1: DR4B6 (antibody, V domains shown)
VH: QIQLVQSGPELKKPGETVKISCKASGFTFTNYGMNWVKQAPGKGLKWMGWINTYTREPTYADDFKGRFAFSLETSASTAYLQINNLKNEDTAKYFCARDITAVVPTGFDYWGQGTTLTVSS
VL: DIQMTQSPASLSVSVGETVTITCRASENIYSNLAWYRQKQGKSPQLLVFAASNLADGVPSRFSGSGSGTQYSLKINSLQSEDFGDYYCQHFWTTPWAFGGGTNLEIK
notes: also called L243 re-engineered as IgG2sigma
ECL signal [1]: 282 ECL
ECL signal [2]: 298 ECL
ECL signal [3]: 133 ECL
ECL signal [4]: 473 ECL
ECL signal [5]: 76 ECL
ECL signal [6]: 203 ECL
ECL signal [7]: 67 ECL
ECL signal [8]: 1450 ECL
ECL signal [9]: 627000 ECL
ECL signal [10]: 623000 ECL
ECL signal [11]: 693000 ECL
ECL signal [12]: 615000 ECL
binding result [13]: no binding
ECL signal [14]: 608000 ECL
ECL signal [15]: 372000 ECL
ECL signal [16]: 520000 ECL
ECL signal [17]: 588000 ECL
ECL signal [18]: 1.35e+06 ECL
ECL signal [19]: 1.24e+06 ECL

B2: DR4B5 (antibody, V domains shown)
VH: QVQLQESGPGLVKPSETLSLTCTVSGFSLTNYGVHWVRQSPGKGLEWIGVKWSGGSTEYNAAFISRLTISKDTSKNQVSLKLNSLTAADTAVYYCARNDRYAMDYWGQGTLVTVSS
VL: DIQMTQSPSSLSASVGDRVTITCRASENIYSYLAWYQQKPGKAPKLLVSNAKTLAEGVPSRFSGSGSGKQFTLTISSLQPEDFATYYCQHHYGNSYPFGQGTKLEIK
notes: also called apolizumab (1D10) re-engineered as IgG2sigma
ECL signal [1]: 195 ECL
ECL signal [2]: 120 ECL
ECL signal [3]: 100 ECL
ECL signal [4]: 1360 ECL
ECL signal [5]: 76 ECL
ECL signal [6]: 123 ECL
ECL signal [7]: 70 ECL
ECL signal [8]: 736 ECL
ECL signal [9]: 20600 ECL
ECL signal [10]: 469 ECL
ECL signal [11]: 62500 ECL
ECL signal [12]: 723 ECL
binding result [13]: no binding
ECL signal [14]: 49000 ECL
ECL signal [15]: 8040 ECL
ECL signal [16]: 22600 ECL
ECL signal [17]: 7030 ECL
ECL signal [18]: 1.31e+06 ECL
ECL signal [19]: 1.18e+06 ECL
